For four molecules, Km and kcat results are on record in PMC7619206, “Human mitochondrial glutathione transferases: Kinetic parameters and accommodation of a mitochondria-targeting group in substrates” (Bioorganic & medicinal chemistry, 2024).

The target of series [1] is T1, hGSTA1-1 (Homo sapiens, UniProt P08263).
T1 construct: gene GSTA1
T1 sequence (P08263 1-222): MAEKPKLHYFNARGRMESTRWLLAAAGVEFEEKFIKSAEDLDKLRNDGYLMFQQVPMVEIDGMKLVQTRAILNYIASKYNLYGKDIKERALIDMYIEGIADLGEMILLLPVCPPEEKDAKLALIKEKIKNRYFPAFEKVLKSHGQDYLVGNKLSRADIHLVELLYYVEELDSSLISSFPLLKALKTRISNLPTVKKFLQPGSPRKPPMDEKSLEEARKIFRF
As to the kind of experiment: UV/Vis initial rates of GS-conjugate formation, Michaelis-Menten fit. The following applies: read-out: KM (mM) / hGSTA1-1; 10 mM GSH, 0.1 M HEPES pH 8.0, 30 °C.

The target of series [2] is T2, hGSTA4-4 (Homo sapiens, UniProt O15217).
T2 construct: gene GSTA4
T2 sequence (O15217 1-222): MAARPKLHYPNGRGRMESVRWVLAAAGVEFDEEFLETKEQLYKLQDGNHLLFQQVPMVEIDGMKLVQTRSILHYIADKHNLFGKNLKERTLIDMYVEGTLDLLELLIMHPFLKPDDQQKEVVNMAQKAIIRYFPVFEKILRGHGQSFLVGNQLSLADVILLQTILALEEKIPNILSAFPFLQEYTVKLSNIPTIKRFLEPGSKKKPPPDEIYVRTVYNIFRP
Described as above. The following applies: read-out: hGSTA4-4; 10 mM GSH, 0.1 M HEPES pH 8.0, 30 °C.

Series [3] deals with T3, hGSTK1-1 (Homo sapiens, UniProt Q9Y2Q3).
T3 construct: gene GSTK1
T3 sequence (Q9Y2Q3 1-226): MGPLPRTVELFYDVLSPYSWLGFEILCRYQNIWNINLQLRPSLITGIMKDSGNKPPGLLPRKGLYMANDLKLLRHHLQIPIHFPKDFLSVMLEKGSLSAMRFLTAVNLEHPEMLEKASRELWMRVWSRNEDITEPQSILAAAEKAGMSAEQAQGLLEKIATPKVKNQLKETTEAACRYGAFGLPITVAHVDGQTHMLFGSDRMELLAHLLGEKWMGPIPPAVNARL
The description is as above. The following applies: read-out: hGSTK1-1; 10 mM GSH, 0.1 M HEPES pH 8.0, 30 °C.

Substrate in series [4]: COC(=O)c1ccc(Cl)c([N+](=O)[O-])c1
As to the kind of experiment: UV/Vis initial rates of GS-conjugate formation, Lineweaver-Burk fit. It is filed as biochemical, Homo sapiens. The following applies: 10 mM GSH, 0.1 M HEPES pH 8.0, 30 °C. An excerpt:
(§1) UV/Vis initial rates of GS-conjugate formation, Lineweaver-Burk fit on hGSTA4-4

Substrate in series [5]: COC(=O)c1cc([N+](=O)[O-])ccc1Cl
The description is as above. It is filed as biochemical, Homo sapiens. As to conditions: 10 mM GSH, 0.1 M HEPES pH 8.0, 30 °C.
Text: as §1

Substrate in series [6]: O=[N+]([O-])c1cc([N+](=O)[O-])c(NCCCC[P+](c2ccccc2)(c2ccccc2)c2ccccc2)cc1Cl
Nature of the series: purified protein. The following applies: 10 mM GSH, 0.1 M HEPES pH 8.0, 30 °C.

Substrate in series [7]: O=C(NCCCCC[P+](c1ccccc1)(c1ccccc1)c1ccccc1)c1ccc(Cl)c([N+](=O)[O-])c1
As to the kind of experiment: purified protein. The following applies: 10 mM GSH, 0.1 M HEPES pH 8.0, 30 °C.

Substrate in series [8]: COC(=O)c1ccc(Cl)c([N+](=O)[O-])c1
Nature of the series: UV/Vis initial rates of GS-conjugate formation, Lineweaver-Burk fit. The class given is biochemical, Homo sapiens. The following applies: 10 mM GSH, 0.1 M HEPES pH 8.0, 30 °C. An excerpt: (§2) UV/Vis initial rates of GS-conjugate formation, Lineweaver-Burk fit on hGSTA1-1
This is another data set of the same source.

Substrate in series [9]: COC(=O)c1cc([N+](=O)[O-])ccc1Cl
Described as above. The class given is biochemical, Homo sapiens. The following applies: 10 mM GSH, 0.1 M HEPES pH 8.0, 30 °C.
Text: as §2
The source holds these as a separate data set.

Substrate in series [10]: O=C(NCCCCC[P+](c1ccccc1)(c1ccccc1)c1ccccc1)c1cc([N+](=O)[O-])ccc1Cl
As to the kind of experiment: purified protein. As to conditions: 10 mM GSH, 0.1 M HEPES pH 8.0, 30 °C.

Substrate in series [11]: COC(=O)c1ccc(Cl)c([N+](=O)[O-])c1
Nature of the series: UV/Vis initial rates of GS-conjugate formation, Lineweaver-Burk fit. As to conditions: 10 mM GSH, 0.1 M HEPES pH 8.0, 30 °C. It is filed as biochemical, Homo sapiens. From the text: (§3) UV/Vis initial rates of GS-conjugate formation, Lineweaver-Burk fit on hGSTK1-1
This is another data set of the same source.

Substrate in series [12]: COC(=O)c1cc([N+](=O)[O-])ccc1Cl
The description is as above. The class given is biochemical, Homo sapiens. As to conditions: 10 mM GSH, 0.1 M HEPES pH 8.0, 30 °C.
Text: as §3
The source holds these as a separate data set.

Take `O=[N+]([O-])c1ccc(Cl)c([N+](=O)[O-])c1` [compound 1, 1-chloro-2,4-dinitrobenzene]: the Km in series [1] was found to be 0.128 ± 0.018 mM; in [2], 253 ± 52 µM; in series [3] it was 1900 ± 320 µM.

B1: hGSTA4-4 (Homo sapiens) (protein)
chain: MAARPKLHYPNGRGRMESVRWVLAAAGVEFDEEFLETKEQLYKLQDGNHLLFQQVPMVEIDGMKLVQTRSILHYIADKHNLFGKNLKERTLIDMYVEGTLDLLELLIMHPFLKPDDQQKEVVNMAQKAIIRYFPVFEKILRGHGQSFLVGNQLSLADVILLQTILALEEKIPNILSAFPFLQEYTVKLSNIPTIKRFLEPGSKKKPPPDEIYVRTVYNIFRP
notes: N-terminal 6xHis tag and TEV site (pNIC-28-BsaI), not cleaved; E. coli BL21(DE3), codon-optimised synthetic gene; Ni-NTA
For B1, the Km in series [4] was found to be 3580 ± 90 µM; in series [5], 949 ± 27 µM; in series [6], 142 ± 9 µM; in series [7], 826 ± 5 µM. For the same molecule, the kcat in [4] is 0.521 ± 0.203 s⁻¹; in series [5] it was “(5.61 ± 0.37) x 10^-2 s^-1”; in series [6], 4.59 ± 0.08 s⁻¹; in series [7], 2.13 ± 0.05 s⁻¹.

B2: hGSTA1-1 (Homo sapiens) (protein)
chain: MAEKPKLHYFNARGRMESTRWLLAAAGVEFEEKFIKSAEDLDKLRNDGYLMFQQVPMVEIDGMKLVQTRAILNYIASKYNLYGKDIKERALIDMYIEGIADLGEMILLLPVCPPEEKDAKLALIKEKIKNRYFPAFEKVLKSHGQDYLVGNKLSRADIHLVELLYYVEELDSSLISSFPLLKALKTRISNLPTVKKFLQPGSPRKPPMDEKSLEEARKIFRF
notes: as for B1
As for B2, the Km in series [8] was 2050 ± 770 µM; in series [9], 1670 ± 50 µM; in [6] it was 146 ± 20 µM; in series [7], 441 ± 10 µM; in [10], 720 ± 17 µM. Also, the kcat in series [8] is 8.85 ± 2.79 s⁻¹; in series [9] it was 2.31 ± 0.55 s⁻¹; in series [6], 14.7 ± 0.6 s⁻¹; in [7], 9.50 ± 0.45 s⁻¹; in [10], “(4.67 ± 0.19) x 10^-2 s^-1”.

B3: hGSTK1-1 (Homo sapiens) (protein)
chain: MGPLPRTVELFYDVLSPYSWLGFEILCRYQNIWNINLQLRPSLITGIMKDSGNKPPGLLPRKGLYMANDLKLLRHHLQIPIHFPKDFLSVMLEKGSLSAMRFLTAVNLEHPEMLEKASRELWMRVWSRNEDITEPQSILAAAEKAGMSAEQAQGLLEKIATPKVKNQLKETTEAACRYGAFGLPITVAHVDGQTHMLFGSDRMELLAHLLGEKWMGPIPPAVNARL
notes: as for B1
As to B3, the Km in [11] came out at 301 ± 8 µM; in series [12], 1540 ± 30 µM; in series [6], 360 ± 67 µM. The results for the kcat in series [11], in series [12] and in [6] were 0.106 ± 0.008 s⁻¹, “(9.45 ± 0.68) x 10^-2 s^-1” and 0.103 ± 0.008 s⁻¹, respectively.

For orientation: kcat means the number of substrate molecules converted per active site and unit of time at saturation.
